According to article PMC4514675, “Novel Apo E-Derived ABCA1 Agonist Peptide (CS-6253) Promotes Reverse Cholesterol Transport and Induces Formation of preβ-1 HDL In Vitro” (PLoS ONE, 2015):

Target: ABCA1 (Homo sapiens, UniProt O95477)
Test: Chemical cross-linking of ABCA1, dimer:monomer ratio (SDS-PAGE)
Assay type: cell-based
Set-up: expressed in transfected cells; host or cells: BHK cells, stably transfected, induced with 10 nM mifepristone
Method: Supplementary file pone.0131997.s004.tif: S3 Fig Chemical cross-linking of ABCA1 in intact BHK cells expressing ABCA1. BHK cells in 100-mm diameter dishes were stimulated with 10 nM mifepristone for 18–20 h. BHK cells expressing ABCA1 (100 μg of total protein) in the presence of apo A-I or CS-6253 at same molarity (0.96 μM) were cross-linked or not with 500 μM DSP. Cells were then lysed at 4°C with lysis buffer containing 0.5% n-dodecylmaltoside in the presence of a protease inhibitor mixture followed by low speed centrifugation to remove cell debris. The supernatants were treated or not with 50 mM DTT for 30 min at 37°C and then separated by SDS-PAGE (4–22.5%) in duplicate. After electrophoresis, ABCA1 was detected by an anti-ABCA1 antibody. GAPDH was used as loading control. (TIF) Click here for additional data file. […]

Chain of ABCA1 (O95477 whole entry): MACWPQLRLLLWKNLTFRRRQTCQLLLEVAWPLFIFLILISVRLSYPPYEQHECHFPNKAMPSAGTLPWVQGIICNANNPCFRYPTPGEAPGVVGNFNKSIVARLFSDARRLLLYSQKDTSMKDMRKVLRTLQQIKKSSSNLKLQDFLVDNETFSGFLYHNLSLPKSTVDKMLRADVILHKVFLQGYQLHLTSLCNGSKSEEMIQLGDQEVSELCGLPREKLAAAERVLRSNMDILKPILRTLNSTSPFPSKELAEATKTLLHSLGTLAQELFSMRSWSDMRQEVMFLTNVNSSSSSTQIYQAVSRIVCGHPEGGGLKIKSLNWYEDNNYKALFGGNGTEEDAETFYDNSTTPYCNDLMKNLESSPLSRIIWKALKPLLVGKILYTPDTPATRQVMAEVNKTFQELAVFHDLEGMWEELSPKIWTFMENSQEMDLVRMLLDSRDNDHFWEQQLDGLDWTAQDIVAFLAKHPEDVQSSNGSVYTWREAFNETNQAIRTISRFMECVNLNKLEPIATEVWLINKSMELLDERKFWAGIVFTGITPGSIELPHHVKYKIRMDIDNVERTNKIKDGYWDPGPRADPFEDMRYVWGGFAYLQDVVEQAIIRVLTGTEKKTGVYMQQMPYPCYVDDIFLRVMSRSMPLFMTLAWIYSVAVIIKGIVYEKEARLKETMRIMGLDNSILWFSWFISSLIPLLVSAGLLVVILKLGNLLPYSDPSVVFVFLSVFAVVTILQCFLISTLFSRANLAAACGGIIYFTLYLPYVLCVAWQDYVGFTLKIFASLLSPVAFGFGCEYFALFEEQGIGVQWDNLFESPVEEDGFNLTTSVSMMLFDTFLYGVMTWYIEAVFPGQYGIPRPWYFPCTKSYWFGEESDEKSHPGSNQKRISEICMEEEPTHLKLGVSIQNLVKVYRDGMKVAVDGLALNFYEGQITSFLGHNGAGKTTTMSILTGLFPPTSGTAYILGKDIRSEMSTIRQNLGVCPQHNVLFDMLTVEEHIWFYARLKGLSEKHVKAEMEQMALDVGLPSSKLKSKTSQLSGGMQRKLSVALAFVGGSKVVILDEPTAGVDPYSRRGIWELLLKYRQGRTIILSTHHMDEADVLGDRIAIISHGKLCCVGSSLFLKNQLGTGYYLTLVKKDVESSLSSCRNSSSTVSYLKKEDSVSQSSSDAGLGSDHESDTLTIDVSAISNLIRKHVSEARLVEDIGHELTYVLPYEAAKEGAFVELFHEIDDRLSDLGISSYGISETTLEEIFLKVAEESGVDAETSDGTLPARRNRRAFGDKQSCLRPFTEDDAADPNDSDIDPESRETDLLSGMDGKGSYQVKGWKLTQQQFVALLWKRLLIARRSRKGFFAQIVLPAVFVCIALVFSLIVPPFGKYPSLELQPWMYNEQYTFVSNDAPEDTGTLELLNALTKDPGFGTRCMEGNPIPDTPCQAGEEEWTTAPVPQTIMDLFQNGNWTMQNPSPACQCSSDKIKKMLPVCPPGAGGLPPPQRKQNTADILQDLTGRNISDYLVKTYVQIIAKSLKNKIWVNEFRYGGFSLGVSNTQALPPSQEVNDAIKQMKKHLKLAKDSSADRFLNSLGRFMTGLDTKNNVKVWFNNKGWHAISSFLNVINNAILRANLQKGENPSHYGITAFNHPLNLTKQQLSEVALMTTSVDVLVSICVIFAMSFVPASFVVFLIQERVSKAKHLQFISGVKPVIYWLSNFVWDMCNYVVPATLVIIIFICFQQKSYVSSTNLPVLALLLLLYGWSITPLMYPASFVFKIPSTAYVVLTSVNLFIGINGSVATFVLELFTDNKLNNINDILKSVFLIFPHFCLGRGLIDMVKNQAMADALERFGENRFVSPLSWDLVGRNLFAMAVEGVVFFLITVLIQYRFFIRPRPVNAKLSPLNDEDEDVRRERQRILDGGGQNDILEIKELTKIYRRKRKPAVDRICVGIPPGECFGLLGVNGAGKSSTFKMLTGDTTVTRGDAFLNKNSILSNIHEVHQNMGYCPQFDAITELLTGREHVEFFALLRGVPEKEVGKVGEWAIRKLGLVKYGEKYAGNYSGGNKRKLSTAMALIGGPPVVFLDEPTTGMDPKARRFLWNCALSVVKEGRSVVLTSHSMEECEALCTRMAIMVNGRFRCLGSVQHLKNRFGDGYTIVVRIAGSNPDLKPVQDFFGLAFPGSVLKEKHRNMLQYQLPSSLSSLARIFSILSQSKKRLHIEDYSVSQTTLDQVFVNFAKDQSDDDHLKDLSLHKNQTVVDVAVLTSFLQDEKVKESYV

apolipoprotein A-I [apo A-I]
ratio of ABCA1 dimer: monomer (0.93 μM (appendix) / 0.96 μM (S3 Fig), DSP 500 μM, densitometry): 69.22%±0.25
effect on ABCA1 oligomerization (in words) (BHK-ABCA1, DSP cross-linking): causes ABCA1 dimer formation
